Article PMC9693643, “Aminoquinolones and Their Benzoquinone Dimer Hybrids as Modulators of Prion Protein Conversion” (Molecules, 2022)

Biological target: the molecule itself
Assay: RT-QuIC (seeded fibril conversion, thioflavin T fluorescence)

B1: murine recombinant full-length prion protein (PrP23-231) (natural protein)
chain: not shown
notes: also called recombinant PrP; PrP23-231 fibril seed
B1: binds.
